What was measured:
[1] = target: Annexin A2 (endogenous, PK-15 cells) (pig (endogenous in PK-15)) (UniProt P19620)
[2] = target: Annexin A2 (endogenous, PK-15 cells) (pig (endogenous in PK-15)) (UniProt P19620); remark: listed apart in the source
[3] = target: PCV2 virus-like particles (VLPs) assembled from the capsid protein (Cap) (porcine circovirus type 2 (genotype 2d, strain ChenZ-2-1))
[4] = target: Porcine circovirus type 2 (PCV2) virus particles (capsid of Cap) (porcine circovirus type 2 (genotype 2d, strain ChenZ-2-1))

Chain of UniProt P19620 (P19620 whole entry): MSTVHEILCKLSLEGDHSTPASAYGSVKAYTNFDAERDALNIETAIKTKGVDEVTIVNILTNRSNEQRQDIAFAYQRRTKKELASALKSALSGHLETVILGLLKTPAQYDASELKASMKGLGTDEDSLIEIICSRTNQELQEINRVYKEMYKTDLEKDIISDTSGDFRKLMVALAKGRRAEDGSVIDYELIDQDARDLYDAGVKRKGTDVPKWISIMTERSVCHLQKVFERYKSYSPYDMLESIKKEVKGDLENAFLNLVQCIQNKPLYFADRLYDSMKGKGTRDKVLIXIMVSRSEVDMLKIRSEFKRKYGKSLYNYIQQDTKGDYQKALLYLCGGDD

With “Porcine circovirus type 2 (PCV2) virus particles (capsid of Cap) (complex)” the reduction of PCV2 particles attached to PK-15 cells at 4 °C (qPCR) after pretreatment of the cells with ANXA2-specific antibody (30 μg/mL) [1] was 25.2%, the decrease in PCV2 infectivity by IFA (Cap fluorescence) in PK-15 cells pretreated with ANXA2-specific polyclonal antibody, against control cells [2] was 30% and the reduction of viral genome copies in PK-15 cells at 36 hpi (qPCR) after pretreatment of the cells with anti-ANXA2 polyclonal antibody at 10 and 30 μg/mL [2] was 42.7%.

“recombinant soluble full-length porcine ANXA2 with an N-terminal His-tag (pET-28a(+)) (from UniProt P19620 1-339) (natural protein)” was tested, and the decrease of PCV2 VLP binding to PK-15 cells at 4 °C (immunofluorescence with anti-Cap antibody, fluorescence intensity) after preincubation of VLPs with rANXA2 (20 μg/mL) [3] was 19.4% and the inhibition of PCV2 attachment to PK-15 cells at 4 °C (bound virus by qPCR) after preincubation of PCV2 with rANXA2 (20 μg/mL); blocks PCV2 and cell surface ANXA2 [4] was 32.7%.

From paper PMC12512739
